Experimental data as given in article PMC8791620 (Science Advances, 2022).

T1: Trs33 (subunit of core TRAPP/TRAPPI in TRAPPII) (S. cerevisiae, UniProt Q99394 1-268)
T1 sequence (looked up): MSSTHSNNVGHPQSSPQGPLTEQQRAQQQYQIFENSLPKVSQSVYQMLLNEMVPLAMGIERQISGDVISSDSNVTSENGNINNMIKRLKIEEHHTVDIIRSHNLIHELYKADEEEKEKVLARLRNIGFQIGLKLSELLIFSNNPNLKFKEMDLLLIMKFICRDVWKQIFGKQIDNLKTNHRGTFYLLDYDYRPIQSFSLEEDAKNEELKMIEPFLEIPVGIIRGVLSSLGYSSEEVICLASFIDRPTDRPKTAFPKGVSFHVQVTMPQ

T2: Trs31 (subunit of core TRAPP/TRAPPI in TRAPPII) (S. cerevisiae, UniProt Q03337 1-283)
T2 sequence (looked up): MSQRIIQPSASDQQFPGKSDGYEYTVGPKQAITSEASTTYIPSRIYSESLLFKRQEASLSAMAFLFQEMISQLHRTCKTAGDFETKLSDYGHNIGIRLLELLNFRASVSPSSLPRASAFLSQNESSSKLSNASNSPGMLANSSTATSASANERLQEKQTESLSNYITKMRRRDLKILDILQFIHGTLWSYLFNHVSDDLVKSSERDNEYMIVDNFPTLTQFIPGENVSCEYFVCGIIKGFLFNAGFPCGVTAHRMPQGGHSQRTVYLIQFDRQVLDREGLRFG

T3: Trs23 (subunit of core TRAPP/TRAPPI in TRAPPII) (S. cerevisiae, UniProt Q03784 1-219)
T3 sequence (looked up): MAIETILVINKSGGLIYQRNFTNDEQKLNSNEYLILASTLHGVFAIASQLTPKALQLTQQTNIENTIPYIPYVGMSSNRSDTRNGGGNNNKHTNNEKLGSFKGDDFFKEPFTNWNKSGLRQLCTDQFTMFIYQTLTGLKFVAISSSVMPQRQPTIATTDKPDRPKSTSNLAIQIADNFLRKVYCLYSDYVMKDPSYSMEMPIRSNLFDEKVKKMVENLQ

T4: Trs120 (3xFLAG-tagged, subunit of TRAPPII) (S. cerevisiae, UniProt Q04183 1-1289)
T4 sequence: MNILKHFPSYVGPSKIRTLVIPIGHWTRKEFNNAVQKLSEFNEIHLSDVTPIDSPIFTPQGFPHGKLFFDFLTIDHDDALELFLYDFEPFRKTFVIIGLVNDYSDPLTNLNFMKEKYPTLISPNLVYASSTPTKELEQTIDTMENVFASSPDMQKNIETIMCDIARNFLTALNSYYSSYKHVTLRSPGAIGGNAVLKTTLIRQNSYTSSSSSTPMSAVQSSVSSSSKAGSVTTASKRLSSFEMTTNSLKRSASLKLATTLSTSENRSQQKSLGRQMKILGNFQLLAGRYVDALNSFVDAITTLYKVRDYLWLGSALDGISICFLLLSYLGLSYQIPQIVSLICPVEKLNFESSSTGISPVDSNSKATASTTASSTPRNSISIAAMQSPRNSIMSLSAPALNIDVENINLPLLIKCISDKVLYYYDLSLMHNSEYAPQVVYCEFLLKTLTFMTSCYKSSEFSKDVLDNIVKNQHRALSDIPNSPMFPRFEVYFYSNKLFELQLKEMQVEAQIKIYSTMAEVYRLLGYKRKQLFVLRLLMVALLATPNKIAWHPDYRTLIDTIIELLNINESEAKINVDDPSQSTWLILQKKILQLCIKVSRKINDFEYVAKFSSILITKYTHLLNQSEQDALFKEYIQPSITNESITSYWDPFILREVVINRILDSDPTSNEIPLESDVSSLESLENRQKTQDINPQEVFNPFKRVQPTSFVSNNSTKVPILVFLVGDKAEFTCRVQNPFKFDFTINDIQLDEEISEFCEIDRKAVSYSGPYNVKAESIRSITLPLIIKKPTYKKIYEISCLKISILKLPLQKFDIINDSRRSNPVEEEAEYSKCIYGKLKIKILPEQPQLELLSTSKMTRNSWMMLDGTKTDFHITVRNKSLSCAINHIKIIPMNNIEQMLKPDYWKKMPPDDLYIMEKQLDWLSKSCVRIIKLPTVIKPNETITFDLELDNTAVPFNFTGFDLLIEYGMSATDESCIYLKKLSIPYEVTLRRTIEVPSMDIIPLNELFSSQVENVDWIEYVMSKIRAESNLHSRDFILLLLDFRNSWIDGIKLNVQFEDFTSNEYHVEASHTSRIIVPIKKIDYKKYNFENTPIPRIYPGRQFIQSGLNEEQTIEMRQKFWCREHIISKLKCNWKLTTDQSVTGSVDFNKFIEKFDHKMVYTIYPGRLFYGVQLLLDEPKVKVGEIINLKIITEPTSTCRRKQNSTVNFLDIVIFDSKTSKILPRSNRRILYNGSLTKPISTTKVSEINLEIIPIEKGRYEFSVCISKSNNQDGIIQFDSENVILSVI

B1: Trs130 (subunit of TRAPPII) (natural protein, S. cerevisiae, UniProt Q03660 1-1102, looked up)
chain: MDKEIYCGSVPVSYFDPFDLFESLRPEFQQILPLDNIHWKAFDGTVRTVNRLPIELIPEGRGEADKSNDEQPFIRFLIVNCISIDQYRAKVRPLVRQWLPNLESVSSSTGEKMIYKPIILLYANSEVVDSNLFKSVSLMEKFGKDFPHVQTLEVRSVYRSPKERQEFWNQFSQKIKASVLSIFQKRLTHLQHSLANLQKGNNFEEQLLTREKLYELYVVFNILEDASLELQKIKKEILRRNMNMPDGKLQVPFESSSKSDESLGSIIIEGTLDKFQLHKYFFIRRLRLLKLEDQTLTAFVGAFQLIKNFIESISIEYRKSVRLLEFKHYFITSMLSYFEFENVSNPLLCEIKAELLMLKRDNWVQGVMATSGYRLMDKNYPNSDVKYKFDLLKETFVDETVFQENFLTLTKEILSLFNKCEGKRQRIVDILSIEIGLLYYQGKKYEEAVSLFLSCYEYYTQTNWNSIGLKILQVFIDSLSHCPKLDVLQIDGESVSASAVLTNAFLNILKLCKDNDSKEIWWKKFMDLQMKNNIHLMYPLDGLFEVTLNSKVHLARANVSAIEVNLKSYGFPEDISTKTMRLSLKNMGGDVIVFGASDFLLKKGENKLILECRDIMYGEFSLLSFEIIVEGITFVKEFPENQDEFIVVPEIYCKESTKVLVKQAHNLNLGEYALELKSVQSDALESLQVEVEVQKNIGNMKNLPVSFSMDEIQARKRYNTPFENVRLEYYLLDQITAFDLIIKTSFTKKNDQGTFGETKKVRIQCYLQLSVSVEDIFKKDIFFFKFLLNSSVREEPVILYSSELSAPDTRNDYNIRGDYIATTPALITFDGNESFINCYEITANNNFDSKDIFNLKVRYNTLKEQLDCFITDAVLIEGDVEWFILFEKWKTFWELEILKKLKYDYDAFKENRIIRLLKTSIDLNKTKSKIRNLCIEKAVLDKILICLNKVSRGIAVCNTDMDEYVRNLVPKQLTVPVQLPGFEQFFHVQFEQMETSHDALHDTIATIGNSLSYTVIVENLSGQWGQDVIDDGGYIFEILSSNEWLIHGQKRCAIKEKRKEFEVHLIPLKKGYLNFPRVEITNINGKSCRVDHSNAFESILIF

Key:
Experiment in all cases: cryo-EM structure
[1] = biological target: T1, Trs33 (subunit of core TRAPP/TRAPPI in …)
[2] = biological target: T2, Trs31 (subunit of core TRAPP/TRAPPI in …)
[3] = biological target: T3, Trs23 (subunit of core TRAPP/TRAPPI in …)
[4] = biological target: T4, Trs120 (3xFLAG-tagged, subunit of …)
[5] = biological target: B1

| Binder | binding result [1] | binding result [2] | binding result [3] | binding result [4] | binding result [5] |
| --- | --- | --- | --- | --- | --- |
| Bet3 (subunit of core TRAPP/TRAPPI in TRAPPII) (natural protein, S. cerevisiae, UniProt P36149 1-193, looked up) MVSTTQSRSLKAMGEEIWKNKTEKINTELFTLTYGSIVAQLCQDYERDFNKVNDHLYSMGYNIGCRLIEDFLARTALPRCENLVKTSEVLSKCAFKIFLNITPNITNWSHNKDTFSLILDENPLADFVELPMDAMKSLWYSNILCGVLKGSLEMVQLDCDVWFVSDILRGDSQTEIKVKLNRILKDEIPIGED | binds | binds | binds | – | – |
| B1 | – | – | – | binds | – |
| Trs20 (subunit of core TRAPP/TRAPPI in TRAPPII) (natural protein, S. cerevisiae, UniProt P38334 1-175, looked up) MPQYFAIIGKKDNPVYEIEFTNAENPQGFPQDLKELNPFILHASLDIVEDLQWQINPTSQLNGNGGNGSNGGGGFLRSRAVNNTDNCYLGKVDHFYGLAITAYISYSGMKFVMIHGNSANSSVVIDDNNMRSFYQEVHELYVKTLMNPFYKITDPIRSPAFDSRVRTLARKHLSK | – | binds | – | binds | – |
| Trs65 (subunit of TRAPPII) (natural protein, S. cerevisiae, UniProt P32893 1-560, looked up) MECFVPLRCDLDGSNIEQLRQSHLSRKFIIFDEQLNLWLWFQGNSQENKRFVLQNMIILINEAQVTRTSTIDDYFTQVENNENLWRLKNDCCSKILFKSNVVMNNGYNNQIKFVFEYKSVDANFNNQDSLQDPQAKYTLDKYSSEEILPSFEPVYSWSSAATKSSKNTNNHLEKNNRATHRVSSKNSEVHEADVSRNPNTFTLKLQYPIFSLLNMRLRNISLKSEHCILSSLDFQTSKASEQLTKKFIYPQEHNSFLKLNFQEISYKLIDGTSQIELDPICPLKVPLTAFSYDSISATFKLVLLPKSTQPHRVKITLAYELELHPNLKLPVRTSWETEVTLKRSMPISSTSSQYSSNNNNTNHSASFNGAANNVNSGGLANLRLGGVSSSRFSLGAASTTSLVNSKLSNVKFKFINSNIKVIKGEKFTMRLQIINSSSSPLDLVVYYNNTINPIPSANNVRNSNGINNCGMNNGTIPNSPLTLENQYQLHNKYRKIAEGIILLSNDYKIPVVPPRETYFADLRFIGIMSGYYGTLSGLKVLDLNTNELIEVGNGASVLIQ | – | – | – | binds | binds |
| Tca17 (subunit of TRAPPII) (natural protein, S. cerevisiae, UniProt P32613 1-152, looked up) MSLRPCFVSLIDESDKPILIYVPNEAENEMNDVLKYNVLSNISLDYFESALVEWHSLDSKPLLKSIFQLEGVSVFAMLIKQTGLKIVIGFEQKSLSGADDEFEAINQIFETVRKIYIRVKCNPLLVSGDEKSIIKSLERKFDELFISTEVEL | binds | – | – | – | binds |
